Results from the NTF2 design screens of Basanta et al. (2020).

assay: protease stability score; higher = more stable; yeast display proteolysis, trypsin and chymotrypsin;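 also: log10 excess protease needed over predicted unfolded state with 0 meaning unfolded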

Sequence	protease stability score
NEEQLERVVKKWMEAVENADSKKVKELLKPDAEVQFGNRTVKGVDELVKYVKKFMDMGVELEVKEHKVEGGRARYQVVATYGGQTVTAQLTIQAKNGKIEKIEFRDNEEVQTLEKQG	0.988
DDKNRELLTEVLKARETGDPDRIHELLDPNVKVKVGNKTLRGRNEIAKWWKRQTDEMRIEESITHIDVHNGKARMEASARVEINGRPVTYTFIMKAVIHNGRVKEINIHIPEEKMQEVTQ	0.948
DEHDVRELLKALTTGNEDDMRKMLDKDVTANIGNFRVKGREQQLTLIRRMLERADHLSVTSFSSHNGNVEVDVQVTVDGRRIRYVIRAQAHNGKVNSVRMDVTDHSVEQTLRHLHS	1.36
DEDLKHLFHTFQKVLEEGNREKLRRLADENVTVSYGDKRVHGMESFARQVKEERDEQRVVINIRKVDVSGDQVRVVADVEREHNGKPDRKNLVMEANAEGDKFREVKYTEHG	0.151
DEEEVKQAIDRWEQGDPDQLKELVDENAHMVIGDKRLHGRETFEKMIKNLMDQADHITIESVEVQGDKAVMDVVANFNGKTVRYEVEIRIQNGQIKYLQINVTNEHDEHRFDQWLG	1.16
DEDLMTQIVKRYIDAWREGDRDELMKLADENVHIQVGDQTYHGQEQWRELVKKHKDNADHMDVKSWNIRGEKVHVHYWARFNGVEIEDTVEIQYENGRIIDIQFDPDQQRKEDK	0.676
DPKKAFKVAEEAMKYFVKGNVDELKKILNPDGTARVADHETKGVEEIMKLLQRMKKHGVQVEVKEVRREGNQVEVHTVYHDGDETATLTVQYKAQNGKVDHIKVQYNERMKKIWEKG	1.2
DDEELQELVKVIQDNDKDRWRENIDKDARVRYGDKQWEGRNEVDKLMRELLEKADHIQFNSIHVQGNSIVVDVNINVNGKELDVIIEMEVRDGRIKHVKFQWRNEELHRIMDEILS	0.879
DEERYKRLFEKVFKVVQNGNKDELKKLLAPNVEYNYVDKTYEGEEAAKAVVQLVKKVGAKAKQQKVEVKGDTATAHFQYENGDQRVETQAELHYEGDKVKKVQVKLTDEVKKVVHQG	0.356
EEEDVETAKQFIEAEEKGDEDRLVELADPNARFNVGDKNLHGREHAAREMRKHQEEADLRLEDVRLDVHNGRVDIELVFTHRHNGQPTRQKVKLTFEQHNGQLTHVQNDETK	0.558
DEKQDKHYKKMMDEGDWKHFANNADPNARVDIGDKEYHGREQVNKALRRISEQADDFRVHDVQVENGRVRADVEFHVNGRSLKVDIRAVLHNGEVTHFHMSVTSEEVKQMLREIFD	0.289
DDEALRVYQEVLEAWKHGDEDRLRQLLDPNVSIDVGDKDVHGREDYVTKMVRKARELSFHFEHVHVDHDGDKATIQMVYVIDQNGEPDRTANNVKVDVQNGKIKEIRVSSDR	0.622
DEEKKDKASEMVRAEQKNNPDKVNELADKNAKFNIGDKRIHGREHLKKTIETENREARYDIDEVDVRAKNGKVDVKMSMRVRHNGRPDRFHVEQTVRFNNGKAQEVTRHKKK	-0.299
DENLERQASRLISALLDNDPDLAVELVDENVKVQIGDKTVHGRETVHRHIETLVHHMRMDLDRFHVEVSGEKAKITLDVRFKINGKPIKDTLDVFFTAHNGKIKSVHFRMPEEHKKQVDR	0.899
DEKLHHQIKEFIKAMKNGDPDKVQELADPNAEFRVGDKEIHGMDKYHKTVHDRHRKQRVNIQLHQLTVKGDKAEFVVTIDVQHNGQPSNDVYRAVIKLKNGKIQVVDRQKDQ	-0.138
DSEKNEALQRAVEIWNSNDPDKLKKQFDPNARHTYGDTVVHGRENLARRLEQLKRESRLTFQVTHLDVHNGKVTADVTIVEEHNGKPDTKRMDVQANVQNGRFKSVYVHESS	-0.003
DERDLHRQAEDVATAWQTGDSHQFEKLASENVRYVIGDKSYKGKEQVKDMLTEIDKQADHRRVSSMTVHGNKIVVVITVHYNGRTRRLNVVFDVHNGRVRQVDLSIG	0.701
DEKKTKELLKEAMKALHNGNEEKVKKLGGPDVEVHAFNYRNRGPEAMVEMARLAQRVGTEFQYREERFEGNRVKTVVEVTVGGDTVRYEVQATVEGGEVKRWEAHVDEKFIEHVEKS	0.174

Sequence	protease stability score
DEDDNKIAKEWYKAIQRGDPDRVKQLVDPNVKIRIGDKDIRGRENFATEVERMRDEIEVVFKVKDMKDQGDKANVEYEYQTQSNGRPRTKSQTVNVSMHNGHVKHVNVRDDQ	-0.301
DDEEDHRVARLASTALQTGDPNQFKNLVDEDVKADVGDKTYHGHEQVMEMFKKFVDQVDHIKVKRVEVDGETARVDAEADINGRTKKIVLDVQAHNGHIKRVQMETS	0.39
DEKDAEKVMRELAKAAVNGNYKKAVQLVKEDVQVEYMDQRTHGKEKLKEMLKKFTDLGAEVEYKEVHVKGDTVTVKVEAKMDGKKVKFKVQYVVTDHRLDKVTVKYSEEAYKVIKHG	0.525
DDSVMTAVKELLTNIQSGDPDKIQRYLDPNARMQVGDKEIHGRENIAKEIHDQNNEMEVDIEVKHVEVTGDTAIVHADVQEFHNGRPDTFHLVVRAKQDNGKMTSVVFEKRK	-0.268
DETIHDQAQRFFRDVQTGDEENIHKYFDPNARFVVGDKDLHGMSEVAEDLARKWNEWRVDVRDYRIKVHNGRIEVHIDARFDHDGQPEDRSEVVVYTMKNGQVQMVEFHKQG	0.464
DETNLKKVLDVLKDNDEKKLEELADEDAKNDIGNFDYRGRRQFEEAMRHRRKMIDSLEVKSVRADGDKAEIDMSAVINGREVKASQMVKVHNGRIKSISVRFTDPDKEREADKKAQ	0.023
DDRQQRVMEKILTAVQKGDEKKVKDQMDPNVKVHVGEFHYQGEEQLEKTLRHRTKELEIEYREITFRVDNGNVHVDVKAQLNNNGKPQQFTQHFSAEVDGDRVKTVHVEVKQ	-0.533
EDEEAEKLSEIQRTGDEERIARNADPNVRVNVGDKRVHGREHLVSIAKRLSKNVDSLEIKHVEIQGERMVVRFVMQVNGKHIHAEMEIQMSNGRITSRNQRYTSEDVEQNWRDAVD	0.255
DERLKEQVKRLWEALKENDHDELSKLVDKDAHIVVGDKEVHGRENFMTEMATELSEIRIDYKRLHIDAQGDTADVEVDVEQEHNGQPRRDVKRVEFEYENGRLVKMNVQDNG	0.438
DEERAMKDAVDRMEKNVKNGNFDKMMNLADKDAKVVVGDDTYRGRDNNVKKNKEDKEEFDHAEVRFKEVEVENGRISIHADITLNVNGQDVTRRFNFELRNHNGTALIVRLTLK	0.188
DEKELNDLKRVVRHGDEDRLEELMDEDVRMKVGNKEISGRSHAVKVMKKLNEKADHIEIKDIKISGEKVVVDLVFEVNGTKIKMRLIIVVRNGKIKHAQIEVTDEEVEDNLHKFLD	0.972
DEHVLHELERAFRDNDFERLQEQFDENARVEIGDKTYHGKNQVQQAMNDFKTAYDHYQLKTFDIHGEKVFADVKATVNGHDVEFEWEMTASNGRIKKLHIQARDEEVKEQLKRALS	0.109
DEDANKVMKKVVEAIKEGDPDTIRKLVDPNARVNVGDTTVNGREEFARQNHEKMNQSRIHYLSMDFEQREGHAVVTVRFEKHHNGKPDTDRYRATANFKNGKLTEYKQKEDG	-0.291
DEDDMRRLEQLFRDIQTGNPERVRTLVDKNAELRVGDKRIKGREDVHRSVKKNRDEIRYSIDRLSADVKGDQVEMTVTAQKEHNGEPRSFKFTMTAKFRNGKLQHLDVHEEK	-0.297
DERALDVVRKYQEALNSNDPEHLVELIDPNAKLQVGDKTIHGREQLHHEAQKRKDEMRLNVEVHDLRDRGSTVQIHARRSYSHNGRPRSERYVLHATIRGDKIDKMHFQTDS	-0.243
EEEKMEKLMKQLFDAVQKGDVDKFVKYLKEDVEFQFGDNRIKGVEEYKRTMEEMHKKGVQFEIKEAQNKDDTVKMRTVVHYGNQTFEVTAEATYDGGVLDKARVEVSEEAKEAFKKG	0.992
DESDVEDLAKDAINAYQTGDPDQVARMADKDVKFTVGDHEVKGRNQLREHLQTIFHNVDHFDVTDMRINGNKARIHFTANVNGQTERNVMIIVAHNGKVRKMAIHSQ	-0.566
DEERMLKVAETVIRAVRNGNADKAVKYIDEGGEATFGDTKLKGPEHIYEYVKKFKDQGIEVHYKEEHKEGDKVTVHTQAHLGDATADFEVHYQVKGDKLDRMEVRMDKEQLKKFRDS	-0.347
